Data published in PMC4764553 (eLife, 2016).

B1: Full-length hCMV (Towne) IE1 (natural protein)
chain: MESSAKRKMDPDNPDEGPSSKVPRPETPVTKATTFLQTMLRKEVNSQLSLGDPLFPELAEESLKTFERVTEDCNENPEKDVLAELVKQIKVRVDMVRHRIKEHMLKKYTQTEEKFTGAFNMMGGCLQNALDILDKVHEPFEEMKCIGLTMQSMYENYIVPEDKREMWMACIKELHDVSKGAANKLGGALQAKARAKKDELRRKMMYMCYRNIEFFTKNSAFPKTTNGCSQAMAALQNLPQCSPDEIMAYAQKIFKILDEERDKVLTHIDHIFMDILTTCVETMCNEYKVTSDACMMTMYGGISLLSEFCRVLSCYVLEETSVMLAKRPLITKPEVISVMKRRIEEICMKVFAQYILGADPLRVCSPSVDDLRAIAEESDEEEAIVAYTLATRGASSSDSLVSPPESPVPATIPLSSVIVAENSDQEESEQSDEEEEEGAQEEREDTVSVKSEPVSEIEEVAPEEEEDGAEEPTASGGKSTHPMVTRSKADQ

Biological target: T1, Human nucleosome core particle (human histone octamer with the 147-bp Widom 601 DNA) (human, UniProt P68431 1-136; P62805 1-103; P04908 1-130; P06899 1-126)
T1 construct: also called recombinant human NCP; human NCP
Experiment: ITC
Details: both partners purified

Row | Binder | Kd [µM] | fold weaker binding than IE1-CTD alone [fold]
1 | HPMVTRSKADQ [IE1-CTD mutant lacking the N-terminal segment (Δ476–480)] | 12 | 
2 | GGKSTHPMVTRSKADQ [IE1-CTD peptide (chromatin-tethering domain of hCMV IE1, a.a. 476–491)] | 0.4 | 
3 | B1 |  | ~5
